{
  "source": "patent US20260224724A1",
  "about": "“GLYCOSYNTHASE VARIANTS FOR ANTIBODY-DRUG CONJUGATE ENGINEERING” (OBI Pharma, Inc., priority 2022, published 2026)",
  "key": {"[1]": {"tested_on": "Herceptin-GlcNAc", "experiment": "Transglycosylation of glycan-oxazoline to Herceptin-GlcNAc, monitored by HPLC", "assay_type": "biochemical", "conditions": "for 1N-G2S2 (hemi-glycosylated) / 2N-G2S2 (fully glycosylated) / GlcNAc(F) (unreacted acceptor) / 1N-Glycan / 2N-Glycan / GlcNAc(F): acceptor Herceptin-GlcNAc; for 1N-G2S2 (hemi-glycosylated) / 2N-G2S2 (fully glycosylated) / GlcNAc(F) (unreacted acceptor): NSCT-oxa, best conditions (20:1 EndoSz-D234M, 150:1 EndoSd-D232M)", "procedure": "(§1) In general procedures, mAb-GlcNAc/mAb-GlucNAc-F (5 mg) was incubated with glycan-oxa with molar ratio 1:20 and 1:150 (mAb-GlcNAc:NSCT-oxa) by EndoSz-D234M (167 μg) or EndoSd-D232M (1002 μg), respectively, at 30° C. for 20 minutes in a MOPS buffer (50 mM, pH 6.7), to final volume 500 μL. There were some slight modifications according to experiment purposes and designs (see result section). HLPC was employed to monitor the transglycosylation efficiency.\n(§2) The glycosynthase activity was analyzed by HPLC (Waters e2695) using 2.1×150 mm UPLC Glycoprotein Amide Column (Waters) under two different buffers (Buffer A, ddH2O/0.3% v/v HFIP (1,1,1,3,3,3-Hexafluoro-2-propanol), 0.1% v/v TFA; Buffer B, ACN, 0.3% v/v HFIP, 0.1% v/v TFA) with the gradient as Table 4.\n(§3) After ensuring the baseline stability by injection water blank, the process was started by 2 μL sample injection. In the process duration (29 mins), the flow rate was 0.2 mL/min under the column temperature of 65° C. and sample tray temperature of 5° C."}, "[2]": {"tested_on": "Herceptin-GlcNAc-F", "experiment": "Transglycosylation of glycan-oxazoline to fucosylated Herceptin-GlcNAc-F, monitored by HPLC", "assay_type": "biochemical", "conditions": "for GlcNAc(F) (unreacted acceptor) / 1N-G2S2 (hemi-glycosylated) / 2N-G2S2 (fully glycosylated, Herceptin-2N-G2S2F): NSCT-oxa, best conditions; for 1N-G2S2 (hemi-glycosylated) / 2N-G2S2 (fully glycosylated, Herceptin-2N-G2S2F) / 1N-Glycan / 2N-Glycan / GlcNAc(F): acceptor Herceptin-GlcNAc-F", "procedure": "as §1, §2, §3"}},
  "data": [
    {"molecule": "EndoSd-D232M: D232M glycosynthase mutant of EndoSd from Streptococcus dysgalactiae subsp. Dysgalactiae, SEQ ID NO 1 (protein, listed as Streptococcus dysgalactiae) MGTILGTHHDSLISVKAEEKITQVSQTSTSIDDLHYLSENSKKEFKEELSKEKVPEKVKEILSKAQQANKQAQELAEMKVPDKIPMKPLNGPLYGGYFRTWHDKTSDPLEKDKVNSMGELPKEVDLAFVFHDWTKDYSLFWKELATKHVPKLNKQGTRVIRTIPWRFLAGGDNSGIAEDASKYPNTPEGNKALAKAIVDEYVYKYNLDGLDVMIEHDSIPKVNGEASDENLKRSIDVFEEIGKLIGPKGADKSRLFIMDSTYMADKNPLIERGAPYIDLLLVQVYGSQGEQGEFQNDTKSVTKTPEERWQGYSKYIRPEQYMIGFSFYEEKAGSGNLWYDINARKDEDTANGINDDITGTRAERYARWQPKTGGVKGGIFSYAIDRDGVAHQPKQIAEKDKQSVKNNRPLISEITDNIFHSNYSVSKTLKTVMLKDKAYDLIDEKDFPDKALREAVMAQVGTRKGDLERFNGTLRLDNPAIQSLEGLNKFKKLAQLDLIGLSRIIKLDQSVLPANMKPGKDPLETVLETYKKNGKEEPAIIPPVSLTVSGLTGLKELDLSGFDRETLAGIDAATLTSLEKVDISDNKLDLAPKTENRQIFDVMLSTVNNNAGISEQSIKFDNQKPAGNYPQTYGATNLQLPVRQEKIDLQHQLLFGTITNQGTLINSEADYKTYRNQKIAGRNFVDPDYPYNNFKVSHDNYTVKVTDSTLGTTTDKMLATDKEETYKVDFFSPTDKTKAVHTAKVIVGDEKTMMVNLAEGATVIKSENDENAQKVFNGIMEYNPLSFNNKSSIIFEIKDPSLAKYWRLFNDSSKDKKDYIKEAKLEVFTGQLNAEADVKTILEKPDNWVTVSTYSGEEKVFSHSLDNISAKYWRVTVDNKKDQYGYVSLPELQILGYPLPNADTIMKTVTVAKELSQQKDKFPQQLLDESTAKEAVVEASLNSKLFDTGVINTNVEALKNVVDECLAYEKNKETAFKATEDYRAAVNGVKAESVTVEEMAQLKDLIGKAAHLNSKIDAKLADREYDKDLLGLIGELTNITRTVKSFVKHHHHHH", "values": [
      {"measurement": "Relative transglycosylation activity of EndoSd mutants", "setting": "[1]; EndoSd-D232M set to 100%, NSCT-oxa donor, best conditions", "result": 100, "unit": "%"},
      {"measurement": "1N-G2S2 (hemi-glycosylated)", "setting": "[1]", "result": 2.11, "unit": "%"},
      {"measurement": "2N-G2S2 (fully glycosylated)", "setting": "[1]", "result": 97.88, "unit": "%"},
      {"measurement": "GlcNAc(F) (unreacted acceptor)", "setting": "[1]", "result": 0, "unit": "%"},
      {"measurement": "Herceptin-2N-G2S2 generated", "setting": "[1]; molar ratio 20:1 (NSCT-oxa/antibody), final condition of EndoSz-D234M", "result": 46.06, "unit": "%"},
      {"measurement": "GlcNAc(F) (unreacted acceptor)", "setting": "[2]", "result": 0, "unit": "%"},
      {"measurement": "1N-G2S2 (hemi-glycosylated)", "setting": "[2]", "result": 3.17, "unit": "%"},
      {"measurement": "2N-G2S2 (fully glycosylated, Herceptin-2N-G2S2F)", "setting": "[2]", "result": 94.75, "unit": "%"}
    ]},
    {"molecule": "EndoSz-D234M: D234M glycosynthase mutant of EndoSz from Streptococcus equi subsp. Zooepidemicus Sz105, SEQ ID NO 2 (protein, listed as Streptococcus equi) MVAILAAQHDSLIRVKAEDKLVQTSPSVSAIDALHYLSENSKKEFKEELSKVEKAQPEKLKEIVSKAQQADKQAKTLAEMKVPEKIPMKPLKGPLYGGYFRTWHDKTSDPAEKDKVNSMGELPKEVDLAFVFHDWTKDYSLFWQELATKHVPTLNKQGTRVIRTIPWRFLAGGDHSGIAEDAQKYPNTPEGNKALAKAIVDEYVYKYNLDGLDVMIERDSIPKVNKEESKEGIERSIQVFEEIGKLIGPKGADKSRLFIMDSTYMADKNPLIERGAPYIDLLLVQVYGTQGEKGGFDNANHKAVDTMEERWESYSKYIRPEQYMVGFSFYEEKANSGNLWYDVNVEDDTNPNIGSEIKGTRAERYAKWQPKTGGVKGGIFSYGIDRDGVAHPKKNGPKTPDLDKIVKSDYKVSKALKKVMENDKSYELIDQKDFPDKALREAVIAQVGSRRGNLERFNGTLRLDNPDIKSLEGLNKLKKLAKLELIGLSQITKLDSSVLPENIKPTKDTLVSVLETYKNDDRKEEAKAIPQVALTISGLTGLKELNLAGFDRDSLAGIDAASLTSLEKVDLSSNKLDLAAGTENRQILDTMLATVTKHGGVSEKTFVFDHQKPTGLYPDTYGTKSLQLPVANDTIDLQAKLLFGTVTNQGTLINSEADYKAYQEQEIAGHRFVDSSYDYKAFAVTYKDYKIKVTDSTLGVTDHKDLSTSKEETYKVEFFSPINSTKPVHEAKIVVGEEKTMMVNLAEGATIIGGDADPTNAKKVFDGLLNNDTTTLSTSNKASIIFELKEPGLVKHWRFFNDSKISKADYIKEAKLEAFVGHLEDSSKVKDSLEKSTEWVTVSDYSGEAQEFSQPLNNIGAKYWRITIDNKKSQYGYVSLPELQIIGHRLPEAATVMTTMAAAEELSQQKDKFSQEQLKELEVKVAALKAALDNKMFNADTINASFADVKAYIDKLLADAAGKKTLGKATKEAQPVATDAKEKAESENPKADHHHHHH", "values": [
      {"measurement": "Relative transglycosylation activity of EndoSz mutants", "setting": "[1]; EndoSz-D234M set to 100%, NSCT-oxa donor, best conditions", "result": 100, "unit": "%"},
      {"measurement": "1N-G2S2 (hemi-glycosylated)", "setting": "[1]", "result": 4.8, "unit": "%"},
      {"measurement": "2N-G2S2 (fully glycosylated)", "setting": "[1]", "result": 91.85, "unit": "%"},
      {"measurement": "GlcNAc(F) (unreacted acceptor)", "setting": "[1]", "result": 3.35, "unit": "%"},
      {"measurement": "1N-Glycan", "setting": "[1]; glycan G0, 20:1", "result": 2.58, "unit": "%"},
      {"measurement": "2N-Glycan", "setting": "[1]; glycan G0, 20:1", "result": 96.50, "unit": "%"},
      {"measurement": "GlcNAc(F)", "setting": "[1]; glycan G0, 20:1", "result": 0.91, "unit": "%"},
      {"measurement": "1N-Glycan", "setting": "[1]; glycan G2, 20:1", "result": 4.52, "unit": "%"},
      {"measurement": "2N-Glycan", "setting": "[1]; glycan G2, 20:1", "result": 94.87, "unit": "%"},
      {"measurement": "GlcNAc(F)", "setting": "[1]; glycan G2, 20:1", "result": 0.61, "unit": "%"},
      {"measurement": "1N-Glycan", "setting": "[1]; glycan M3 (40eq)", "result": 6.51, "unit": "%"},
      {"measurement": "2N-Glycan", "setting": "[1]; glycan M3 (40eq)", "result": 92.37, "unit": "%"},
      {"measurement": "GlcNAc(F)", "setting": "[1]; glycan M3 (40eq)", "result": 1.11, "unit": "%"},
      {"measurement": "GlcNAc(F) (unreacted acceptor)", "setting": "[2]", "result": 1.72, "unit": "%"},
      {"measurement": "1N-G2S2 (hemi-glycosylated)", "setting": "[2]", "result": 4.00, "unit": "%"},
      {"measurement": "2N-G2S2 (fully glycosylated, Herceptin-2N-G2S2F)", "setting": "[2]", "result": 94.29, "unit": "%"},
      {"measurement": "1N-Glycan", "setting": "[2]; glycan type G0F", "result": 2.45, "unit": "%"},
      {"measurement": "2N-Glycan", "setting": "[2]; glycan type G0F", "result": 97.55, "unit": "%"},
      {"measurement": "GlcNAc(F)", "setting": "[2]; glycan type G0F", "result": 0.00, "unit": "%"},
      {"measurement": "1N-Glycan", "setting": "[2]; glycan type G2F", "result": 2.64, "unit": "%"},
      {"measurement": "2N-Glycan", "setting": "[2]; glycan type G2F", "result": 97.14, "unit": "%"},
      {"measurement": "GlcNAc(F)", "setting": "[2]; glycan type G2F", "result": 0.21, "unit": "%"},
      {"measurement": "1N-Glycan", "setting": "[2]; glycan type M3F", "result": 4.95, "unit": "%"},
      {"measurement": "2N-Glycan", "setting": "[2]; glycan type M3F", "result": 94.44, "unit": "%"},
      {"measurement": "GlcNAc(F)", "setting": "[2]; glycan type M3F", "result": 0.62, "unit": "%"}
    ]}
  ]
}
